Experimental data published in IntAct's records for PubMed 17563362.

B1: CAP-Gly domain-containing linker protein 1 (Homo sapiens), P30622-2 (parent)
chain: MSMLKPSGLKAPTKILKPGSTALKTPTAVVAPVEKTISSEKASSTPSSETQEEFVDDFRVGERVWVNGNKPGFIQFLGETQFAPGQWAGIVLDEPIGKNDGSVAGVRYFQCEPLKGIFTRPSKLTRKVQAEDEANGLQTTPASRATSPLCTSTASMVSSSPSTPSNIPQKPSQPAAKEPSATPPISNLTKTASESISNLSEAGSIKKGERELKIGDRVLVGGTKAGVVRFLGETDFAKGEWCGVELDEPLGKNDGAVAGTRYFQCQPKYGLFAPVHKVTKIGFPSTTPAKAKANAVRRVMATTSASLKRSPSASSLSSMSSVASSVSSRPSRTGLLTETSSRYARKISGTTALQEALKEKQQHIEQLLAERDLERAEVAKATSHVGEIEQELALARDGHDQHVLELEAKMDQLRTMVEAADREKVELLNQLEEEKRKVEDLQFRVEEESITKGDLEVATVSEKSRIMELEKDLALRVQEVAELRRRLESNKPAGDVDMSLSLLQEISSLQEKLEVTRTDHQREITSLKEHFGAREETHQKEIKALYTATEKLSKENESLKSKLEHANKENSDVIALWKSKLETAIASHQQAMEELKVSFSKGLGTETAEFAELKTQIEKMRLDYQHEIENLQNQQDSERAAHAKEMEALRAKLMKVIKEKENSLEAIRSKLDKAEDQHLVEMEDTLNKLQEAEIKVKELEVLQAKCNEQTKVIDNFTSQLKATEEKLLDLDALRKASSEGKSEMKKLRQQLEAAEKQIKHLEIEKNAESSKASSITRELQGRELKLTNLQENLSEVSQVKETLEKELQILKEKFAEASEEAVSVQRSMQETVNKLHQKEEQFNMLSSDLEKLRENLADMEAKFREKDEREEQLIKAKEKLENDIAEIMKMSGDNSSQLTKMNDELRLKERDVEELQLKLTKANENASFLQKSIEDMTVKAEQSQQEAAKKHEEEKKELERKLSDLEKKMETSHNQCQELKARYERATSETKTKHEEILQNLQKTLLDTEDKLKGAREENSGLLQELEELRKQADKAKAAQTAEDAMQIMEQMTKEKTETLASLEDTKQTNAKLQNELDTLKENNLKNVEELNKSKELLTVENQKMEEFRKEIETLKQAAAQKSQQLSALQEENVKLAEELGRSRDEVTSHQKLEEERSVLNNQLLEMKKRESKFIKDADEEKASLQKSISITSALLTEKDAELEKLRNEVTVLRGENASAKSLHSVVQTLESDKVKLELKVKNLELQLKENKRQLSSSSGNTDTQADEDERAQESQIDFLNSVIVDLQRKNQDLKMKVEMMSEAALNGNGDDLNNYDSDDQEKQSKKKPRLFCDICDCFDLHDTEDCPTQAQMSEDPPHSTHHGSRGEERPYCEICEMFGHWATNCNDDETF

Variants of: B1
Details: with mare1_human MAPRE1, Q15691
Chain of mare1_human MAPRE1, Q15691 (Q15691 whole entry): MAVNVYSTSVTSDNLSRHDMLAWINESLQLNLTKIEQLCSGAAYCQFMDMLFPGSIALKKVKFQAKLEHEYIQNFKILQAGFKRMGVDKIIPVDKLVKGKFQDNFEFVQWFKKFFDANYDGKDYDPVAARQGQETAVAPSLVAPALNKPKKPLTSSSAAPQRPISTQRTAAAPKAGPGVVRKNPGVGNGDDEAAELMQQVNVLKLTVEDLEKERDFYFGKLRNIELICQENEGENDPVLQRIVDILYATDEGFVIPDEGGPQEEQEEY

Variant | effect of a mutation on the interaction
K252A | disrupting interaction strength
K277A | decreasing interaction strength
K224A | disrupting interaction strength

Variants of: B1
Details: with tba1a_human TUBA1A

Variant | effect of a mutation on the interaction
N253D | decreasing interaction strength
N253A | decreasing interaction strength
